PMC9977175 (Science Advances, 2023)

B1: Trx-ATG16L1(78 to 197) (domain or fragment, human, UniProt Q676U5 78-197, looked up)
chain: NDNQLQEMAQLRIKHQEELTELHKKRGELAQLVIDLNNQMQRKDREMQMNEAKIAECLQTISDLETECLDLRTKLCDLERANQTLKDEYDALQITFTALEGKLRKTTEENQELVTRWMAE
B2: Trx-tagged ATG16L1(78 to 206) (domain or fragment, human, UniProt Q676U5 78-206, looked up)
chain: NDNQLQEMAQLRIKHQEELTELHKKRGELAQLVIDLNNQMQRKDREMQMNEAKIAECLQTISDLETECLDLRTKLCDLERANQTLKDEYDALQITFTALEGKLRKTTEENQELVTRWMAEKAQEANRLN
B3: Trx-tagged ATG16L1(78 to 247) (domain or fragment, human, UniProt Q676U5 78-247, looked up)
chain: NDNQLQEMAQLRIKHQEELTELHKKRGELAQLVIDLNNQMQRKDREMQMNEAKIAECLQTISDLETECLDLRTKLCDLERANQTLKDEYDALQITFTALEGKLRKTTEENQELVTRWMAEKAQEANRLNAENEKDSRRRQARLQKELAEAAKEPLPVEQDDDIEVIVDET
B4: ATG16L1(124 to 247) (domain or fragment, human, UniProt Q676U5 124-247, looked up)
chain: MQMNEAKIAECLQTISDLETECLDLRTKLCDLERANQTLKDEYDALQITFTALEGKLRKTTEENQELVTRWMAEKAQEANRLNAENEKDSRRRQARLQKELAEAAKEPLPVEQDDDIEVIVDET

Target: the molecule itself
Experiment: SEC-MALS

Row | Protein | stoichiometry N
1 | B1 | 2
2 | B2 | 2
3 | B3 | 2
4 | B4 | 2
